The DeepSol protein solubility set

test: soluble on expression in E. coli; label from the status in PepcDB or PDB records

Sequence	soluble on expression in E. coli
MEVLHKPVLLRESVEFLTENGGKIYVDCTLGGGGHAKEILKKRKDIFLIGIDRDEEAIEIAKENLKEFEGRFSIYKANFKDLDLVLKEEGIDKVDGFLFDLGVSMYQLKGERGFTFQEDQPLDMRMDKEQTLTACKVVNNYPERELIRILKEYGEEKFAVRIAKAIVQRRKKKPIETTGELVDVILSVVPEYYKHGKIHPATRTFQAIRIEVNKELESLKEALEKTPYHFNSKGRLVVITFHSLEDRIVKHFIKEKEKEGIFRIITKKPVTPSEEEIRENPASRSAKLRVAEKI	soluble
MEVQFKNTRKGYYLNSERIELHKGDVVAVEANPGHDIGTVTLTGKLVKLQMRKHRYNTNNGEPFKIYRIAKQGDLDKYCEAKAREYDTMIQSRQISAELNLDMKIGDVEYQGDGNKAIFYYIADERVDFRQLIRVLAETFHIRVEMKQIGARQEAGRIGGIGPCGRQLCCSAWKMNFVSVNTSAARYQDLALNPQKLTGLCAKLKCCLNYEVDAYVEARKKMPSPEIVLETKESAYHYFKADVFRREVSYSTVPNAPVNLTTISARRAFEVISQNKQGFKPVSLEYDDKKQSSGHELSDILTDNSLTRFDDALSRRRRRNGNGNRDFSDREKAGEPHRTPDSIQPTPRVRSSSRMPSREKSPRPEGGDRRENMRERSRGDARFARPYTNEGGSERMEGARRVVGSGRRPPRQSTPRQEDRQGERKEELEHHHHHH	soluble
MEVYMKKLINDKNNIVEEVVQGMIKAFPNKVSRVENEPIIIRKNKKVNKVALISGGGSGHEPAHAGYVGYGMLDAAVCGEIFTSPGADKVYSAIKAVDAGKGVLLIIKNYSGDVMNFEMAGEMAQAEGITVKQVVVDDDIAVENSTYTVGRRGIAGTIFVHKILGAAAEKGYDLDKLVELGNKVVKNLKTMGMSLKPCTVFTTGKESFEIADDEVEIGLGIHGEPGTHREKMTTANEFTKKLFEKIYAESNVQNGDRFAVLVNGLGETTLIELFIINNHLQDLLKDKRIEVAKTLVGNYMTSLDMGGFSISLLKLDKEMEELLNAEEDTIAFLEHHHHHH	soluble
MEYRMFDIGVNLTSSQFAKDRDDVVACAFDAGVNGLLITGTNLRESQQAQKLARQYSSCWSTAGVHPHDSSQWQAATEEAIIELAAQPEVVAIGECGLDFNRNFSTPEEQERAFVAQLRIAADLNMPVFMHCRDAHERFMTLLEPWLDKLPGAVLHCFTGTREEMQACVAHGIYIGITGWVCDERRGLELRELLPLIPAEKLLIETDAPYLLPRDLTPKPSSRRNEPAHLPHILQRIAHWRGEDAAWLAATTDANVKTLFGIAF	soluble
MEYSQIPSFAFYNNASIFQFFPRNKRLNTHQKSCLDEHARKMAVFMMERQEEYRYYENLANQEQFSDDACFSDTGMDSGFCSGATSTGQSASTSPAPAHLIPNPFFDPEYVAKAQSPVKLVANPFYNPELVKEIKKKSRVSV	not soluble
MFAKVHPAEDVKSGNTGSCHDLVRYLEKETGEGQRFFSHTEQDISPERVIMDIDGNKKALGANDAKFFMLSLNPSQSEQMHLIGRKVDDFKELTPQEKKEVFQKLEAFTRSAMDEYALNFGRDNIRGGQDLMYYARVETERSYHPEDEEVKQGIARIGEPKPGLNLHVHVIVSRKSLDGKVKLSPGAKSAGNTWELEGRGTVKRGFSHEGWKVRVQECFNRKFDYQA	not soluble
MFDDQDEIHPLLAGAPQTTEFRKLRKRIVREVREAIETYGMVERGARWLVCLSGGKDSYTLLAVLHELKWRGLLPVDLLACNLDQGQPGFPATVLPEFLSRMGVPHRIEYQDTYSIVMDKIPQGRTYCALCSRLRRGNLYRIAREEGCSAVVLGHHRDDILETFFMNLFHGGRLATMPPKLVNEDGDLFVYRPLAFVAEADCEKFARDMAYPIIPCDLCGSQEGLQRQQVKQILDGWEARSPGRRQVMFRALMNARPSHLLDPGLFDFLGLATAPRASEERQDEPPHLRGEA	not soluble
MFDPPALKNSVISFLNKRRHSSGGYTLYEGLPDSKNTYYAIRSFEVLDHEPPRLEETLDWLEDVHRGGTFAAQGLFYRCSILRDYGRNFEIPEKFTEMLRTSYRKSSLEITFYMDSVLRMHGEYLDEIPEWVLSIQNEDGGFGAYGSDIINTRFALEILNGHGMKIPGDEVLQFTDSCFSDGAWNFTPISYPPYIETVHSGFRINEILRGKVSDVTRFIMKIRNPDGGFRRSVYMGISEPEYTYRAIYMLASIHGW	not soluble
MFGGDTLYELRCSLQLAETEREGGFSPHISPFTAVNDLGHLLGRAGFNTLTVDTDEIQVNYPGMFELMEDLKGMGESNCSWNRKALLHRDTMLAAAAVYREMYRNEDGSIPATFQIYHMIGWKYHDSQARPAERGSATVSFGELAKLNDVMSHEKK	soluble
MFHCPLCQHAAHARTSRYITDTTKERYHQCQNVNCSATFITYESVQRYIVKPGEVHVVRPHPLPSGQQIMWM	soluble
MFKEVGEPNFPKLEEEVLAFWKREKIFQKSVENRKGGPRYTVYEGPPTANGLPHVGHAQARSYKDLFPRYKTMRGYYAPRRAGWDTHGLPVELEVEKKLGLKSKREIEAYGIERFNQACRESVFTYEKEWEAFTERIAYWVDLENAYATLEPTYIESIWWSLKNLFDRGLLYRDHKVVPYCPRCGTPLSSHEVALGYKEIQDPSVYVRFPLKEPKKLGLEKASLLIWTTTPWTLPGNVAAAVHPEYTYAAFQVGDEALILEEGLGRKLLGEGTPVLKTFPGKALEGLPYTPPYPQALEKGYFVVLADYVSQEDGTGIVHQAPAFGAEDLETARVYGLPLLKTVDEEGKLLVEPFKGLYFREANRAILRDLRGRGLLFKEESYLHSYPHCWRCSTPLMYYATESWFIKNTLFKDELIRKNQEIHWVPPHIKEGRYGEWLKNLVDWALSRNRYWGTPLPIWVCQACGKEEAIGSFQELKARATKPLPEPFDPHRPYVDQVELACACGGTMRRVPYVIDVWYDSGAMPFASLHYPFEHEEVFRESFPADFIAEGIDQTRGWFNFLHQLGVMLFGSIAFKNVICHGLILYEMGQKMSKSKGNVVDPWDIIREFGADALRWYIYVSAPPEADRRFGPNLVRETVRDYFLTLWNVYSFFVTYANLDRPDLKNPPPPEKRPEMDRWLLARMQDLIQRVTEALEAYDPTTSARALRDFVVEDLSQWYVRRNRRRFWKNEDALDREAAYATLYEALVLVATLAAPFTPFLAEVLWQNLVRSVRPEAKESVHLADWPEADPALADEALVAQMRAVLKVVDLARAARAKSGVKTRTPLPLLLVTAPTALEREGLKRFAHEIAEELNVKEVRVLEPGEEILSYRVLPNLKLLGRKYGKLVPKIREALQRERERAAALALKGEAIPLEVEGEALTLLPEEVLLEAEAPKGYQALEKDGYVAALKVEVTEALRMEGLARDLIRLLQQARKDMGLKVSDRIRVGYEAEGPYLEALKRHGPWIAEEVLATAFGEGLFGGFEARVEDEEGKAVFHLARAE	soluble
MFKLLKTFQIVYEQMNFSKAATCLYISQPAVSNQIKQLEEELGCSLFLRNGRQDVVPTRQAEVLYNRLLNLADDWQETLTALHQARLPKETCRIAASNTFAVYYLPQLMQHLQTQYATINFVLEMNNSEEVVEKVEKHQVDFGFIEKPLITKGATREEIIQDQLVLAGDPANQNWLVREKDSGVFHYTQQYLEESNQSPTLMTVKNNEMIVKMLELGMGQSLLSRKAITEKIPFQTLGEKYWRSFYFLTRGHLKSSLLQEVKQAIYRFYQTEMNKY	not soluble
MFKNLIWLKEVDSTQERLKEWNVSYGTALVADRQTKGRGRLGRKWLSQEGGLYFSFLLNPKEFENLLQLPLVLGLSVSEALEEITEIPFSLKWPNDVYFQEKKVSGVLCELSKDKLIVGIGINVNQREIPEEIKDRATTLYEITGKDWDRKEVLLKVLKRISENLKKFKEKSFKEFKGKIESKMLYLGEEVKLLGEGKITGKLVGLSEKGGALILTEEGIKEILSGEFSLRRS	soluble
MFLINGHKQESLAVSDRATQFGDGCFTTARVIDGKVSLLSAHIQRLQDACQRLMISCDFWPQLEQEMKTLAAEQQNGVLKVVISRGSGGRGYSTLNSGPATRILSVTAYPAHYDRLRNEGITLALSPVRLGRNPHLAGIKHLNRLEQVLIRSHLEQTNADEALVLDSEGWVTECCAANLFWRKGNVVYTPRLDQAGVNGIMRQFCIRLLAQSSYQLVEVQASLEESLQADEMVICNALMPVMPVCACGDVSFSSATLYEYLAPLCERPN	soluble
